Measurements published in patent US20240209099A1 (SUZHOU TRANSCENTA THERAPEUTICS, published 2024).

T1: Recombinant Rhesus macaque VEGFR2/KDR Protein, His tag (rhesus macaque)
T1 construct: Expressed in HEK293, bought from ACRO Biosystems; also called rhesus VEGFR2-his; rhesus VEGFR2
T1 chain: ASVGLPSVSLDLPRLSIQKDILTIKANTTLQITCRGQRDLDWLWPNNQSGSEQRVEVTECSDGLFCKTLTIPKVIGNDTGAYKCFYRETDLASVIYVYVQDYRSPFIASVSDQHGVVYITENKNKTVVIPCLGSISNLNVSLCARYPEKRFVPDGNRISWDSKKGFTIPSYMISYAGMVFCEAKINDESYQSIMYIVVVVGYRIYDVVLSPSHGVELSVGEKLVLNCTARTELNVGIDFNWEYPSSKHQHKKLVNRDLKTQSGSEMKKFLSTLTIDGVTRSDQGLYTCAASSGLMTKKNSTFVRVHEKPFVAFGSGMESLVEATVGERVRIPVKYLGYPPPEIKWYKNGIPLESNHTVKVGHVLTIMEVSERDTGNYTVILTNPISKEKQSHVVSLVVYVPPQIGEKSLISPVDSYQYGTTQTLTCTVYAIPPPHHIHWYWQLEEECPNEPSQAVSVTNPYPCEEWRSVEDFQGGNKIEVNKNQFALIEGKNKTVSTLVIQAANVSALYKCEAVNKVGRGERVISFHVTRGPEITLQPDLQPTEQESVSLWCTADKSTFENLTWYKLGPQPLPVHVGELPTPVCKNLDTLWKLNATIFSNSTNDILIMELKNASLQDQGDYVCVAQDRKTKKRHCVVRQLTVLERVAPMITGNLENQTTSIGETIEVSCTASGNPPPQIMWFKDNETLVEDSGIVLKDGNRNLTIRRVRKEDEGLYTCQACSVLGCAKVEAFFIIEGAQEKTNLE


Experiments:
[1] = biological target: T2, human VEGFR2 on HUVEC cells (human, UniProt P35968 20-1356); assay: flow cytometry on HUVEC cells, percent shifted cells (Shift %), anti-human IgG-PE
T2 construct: also called hVEGFR2 on HUVEC

[2] = biological target: T3, Recombinant Human VEGFR2/KDR Protein, His tag (hVEGFR2-his) (human, UniProt P35968 20-764); assay: ELISA, hVEGFR2-his coated (0.5 ug/ml), anti-human Fc-HRP
T3 construct: Expressed in HEK293, bought from ACRO Biosystems; also called human VEGFR2-his; Human VEGFR2/KDR-His
Experimental: (§1) Same protocol of Example 2 antibody screening by ELISA assay. Briefly, 0.5 μg/ml hVEGFR2-his was coated and serially diluted purified antibodies would bind to coated antigen. Using HRP conjugated goat anti-mouse Fc antibody could detect binding signals of each antibody.
(§2) Same protocol of Example 4 except using HRP conjugated goat anti-human Fc antibody as secondary antibody. Binding to hVEGFR2-his and rhesus VEGFR2-his (Acrobiosystems, Cat #VE2-C52H3) were also analyzed head-to-head.

[3] = biological target: T1, Recombinant Rhesus macaque VEGFR2/KDR …; assay: ELISA, rhesus VEGFR2-his coated, anti-human Fc-HRP
Experimental: as §1, §2

[4] = biological target: T3, Recombinant Human VEGFR2/KDR Protein, …; assay: competition ELISA: VEGF-A coated (0.25 ug/ml), antibody mixed with VEGFR2, detection with mouse anti-VEGFR2 serum and anti-mouse Fc-HRP; blocked ligand VEGF-A
Experimental: For this assay, 0.25 μg/ml VEGF-A was coated on ELISA plate before a mixture of chimeric antibodies and VEGFR2 were added. To detect free VEGF-A (not bind to VEGFR2), 1:1000 diluted mouse serum (mouse previous immunized with human VEGFR2) were added and HRP conjugated goat anti-mouse Fc antibody was used as secondary antibody.

[5] = biological target: T3, Recombinant Human VEGFR2/KDR Protein, …; assay: ELISA, hVEGFR2-his coated, anti-human Fc-HRP
Experimental: as §2
Same protocol of Example 9.

[6] = biological target: T3, Recombinant Human VEGFR2/KDR Protein, …; assay: SPR (Biacore), antibody captured by anti-Fc, antigen 2.5-80 nM
Experimental: A CM5 sensor chip was activated in each flow cell by 7-min injection (10 μl/min) of freshly prepared 1:1 50 mM N-hydroxysuccinimide (NHS): 200 mM 1-ethyl-3-(3-dimethylaminopropyl)-carbodiimide (EDC). Then anti-human Fc antibody (GE Healthcare) in a concentration of 10 μg/ml in 10 mM sodium acetate buffer PH 5.0 was injected onto the activated chip at 10 μl/min (HBS-EP running buffer: 10 mM HEPES, 150 mM NaCl, 3.4 mM EDTA, 0.005% surfactant P20, pH 7.4). The remaining active coupling sites were blocked by 7 min injection of 1M ethanolamine at 10 μl/min. The immobilization level of each flow cell is ˜9000RU. Antibodies were captured in FC2 by anti-human Fc IgG or anti-mouse Fc (GE Healthcare) to 200˜300RU. FC1 was used as the reference cell. Antigen was injected at varying concentrations (2.5 nM, 5 nM, 10 nM, 20 nM, 40 nM and 80 nM) after capture of antibody. The association time for antibody binding antigen is 180s. Surface Regeneration condition is 120s at 10 μl/min in Gly pH1.5. The signals with captured antibody subtracted from those without captured antibody were calculated with Biacore X100 evaluation software ver. 2.0 (Biacore).

| Binder | EC50 [1] | EC50 [2] | EC50 [3] | IC50 [4] | EC50 [5] | Kd [6] | koff [6] | kon [6] |
| --- | --- | --- | --- | --- | --- | --- | --- | --- |
| 042C (chimeric 042) (antibody, V domains shown, Chimeric antibody with human constant regions (vector pCP-Hck/Hcg1)) VH: EVQLVESGGDLVKPGGSLKLSCTASGFSFSIYGMSWVRQTPDKRLEWVASISVGGSYTYYADSVEGRFTISRENAKNTLYLQMNSLKSEDTALYYCARELDGNYDYWGQGTSLTVSS VL: DIVITQNELSNPVTFGESVSISCRSSKSLLYKDGKTYLNWFLQRPGQSPQLLIYLMSTRASGVSDRFSGSGSGTDFTLEISRVKAEDVGVYYCQQLVEYPFTFGSGTKLEIK | 0.157 µg/mL | 0.015 µg/mL | 0.0299 µg/mL | 0.148 µg/mL |  |  |  |  |
| 054C (chimeric 054) (antibody, V domains shown, Chimeric antibody with human constant regions (vector pCP-Hck/Hcg1)) VH: EVQLVESGGDLVKPGGSLKLSCAASGFTFSMYGMSWVRQTPDKRLEWVASISIGGSYTYYADSVEGRFIISRENAKNTLFLQMNSLKSEDTALYYCARELDGNYDYWGQGTTLTVSS VL: HIMITQDELSNPVTFGESVSISCRSSKSLLYKDGKTYLNWFLQRPGQSPQLLIYLMSTRASGVSDRFSGSGSGTDFTLEISRVKAEDVGIYYCQQLVEYPFTFGSGTKLEIK | 0.0875 µg/mL | 0.0189 µg/mL | 0.0168 µg/mL | 0.1 µg/mL | 0.0186 µg/mL | 2.45 nM | 0.000113 s⁻¹ | 46000 M⁻¹ s⁻¹ |
| 048C (chimeric 048) (antibody, V domains shown, Chimeric antibody with human constant regions (vector pCP-Hck/Hcg1)) VH: EVQLVESGGDLVKPGGSLKLSCAASGFTFSMYGMSWVRQTPDKRLEWVASISIGGSYTYYADSVEGRFTISRENAKNTLFLQMNSLKSEDTALYYCAREMDGNYDYWGHGTTLTVSS VL: DVMITQDELSNPVTFGESVSISCRSSKSLLYKDGKTYLNWFLQRPGQSPQLLIYLMSTRASGVSDRFSGSGSGTDFTLEISRVKAEDVGIYYCQQLVEYPFTFGSGTKLEIK |  | 0.0053 µg/mL | 0.0101 µg/mL | 0.09 µg/mL | 0.00574 µg/mL |  |  |  |
| 002C (chimeric 002) (antibody, V domains shown, Mouse variable regions cloned into expression vector pCP-Hck/Hcg1 (human constant regions; detected with anti-human Fc)) VH: QVQLQQSGPELVKPGASVKISCKASGYAFSSSWMNWVKQRPGEGLEWIGRIFPGDGDTYYNGKFQVKATLTADKSSSTAYMQLSSLTSEDSAVYFCAIFLDTSGRYVDYWGQGTTLTISS VL: DIVMTQSHKFMSTSVGDRVSITCKASQDVNTAVAWYQQKPGQSPKLLIYSASYRYIGVPDRFTGSGSGTDFTFTISSVQSEDLTVYYCQQHYRAPLTFGSGTKLELK | 0.0823 µg/mL | 0.0308 µg/mL | 0.0209 µg/mL | 2.11 µg/mL |  |  |  |  |
